The values below come from US20220064331A1 (Genentech, published 2022).

The target in assay [1] is T1, rhesus monkey KLB (+N-ter FLAG) (rhesus monkey, UniProt Q86Z14 53-992 (human entry)).
T1 construct: expressed from KLB cDNA on HEK293T cells and read by FACS
T1 chain: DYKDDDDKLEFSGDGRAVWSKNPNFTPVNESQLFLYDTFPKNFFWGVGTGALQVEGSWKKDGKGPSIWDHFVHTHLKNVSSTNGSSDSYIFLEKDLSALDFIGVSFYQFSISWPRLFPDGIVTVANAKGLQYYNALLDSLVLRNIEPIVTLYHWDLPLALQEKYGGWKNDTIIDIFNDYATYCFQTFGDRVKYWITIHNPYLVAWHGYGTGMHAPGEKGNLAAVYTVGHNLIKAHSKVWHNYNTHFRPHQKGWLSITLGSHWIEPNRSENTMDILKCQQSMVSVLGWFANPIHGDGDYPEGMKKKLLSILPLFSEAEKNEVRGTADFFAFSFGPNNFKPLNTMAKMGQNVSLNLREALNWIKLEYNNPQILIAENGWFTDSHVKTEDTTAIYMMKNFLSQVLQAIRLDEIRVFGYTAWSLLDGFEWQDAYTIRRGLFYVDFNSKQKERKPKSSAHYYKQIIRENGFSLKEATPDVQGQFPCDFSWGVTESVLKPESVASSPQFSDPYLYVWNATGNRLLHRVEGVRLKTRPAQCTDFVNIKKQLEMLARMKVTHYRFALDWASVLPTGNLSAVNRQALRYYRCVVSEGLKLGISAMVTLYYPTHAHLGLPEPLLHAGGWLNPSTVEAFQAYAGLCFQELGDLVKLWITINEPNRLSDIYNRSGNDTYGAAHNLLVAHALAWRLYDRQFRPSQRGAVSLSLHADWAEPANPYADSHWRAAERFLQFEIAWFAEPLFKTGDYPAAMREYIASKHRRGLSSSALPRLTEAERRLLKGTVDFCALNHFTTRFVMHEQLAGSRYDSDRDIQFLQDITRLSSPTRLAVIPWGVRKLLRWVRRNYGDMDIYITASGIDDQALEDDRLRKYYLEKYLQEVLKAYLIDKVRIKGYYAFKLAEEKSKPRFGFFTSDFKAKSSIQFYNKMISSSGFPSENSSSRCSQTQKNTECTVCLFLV
The assay can be described thus: FACS on transfected HEK293T cells. On the procedure: (§1) Species cross reactivity of the disclosed anti-KLB antibodies were analyzed by FACS analysis using KLB cDNA from mouse, rat, rabbit, cynomolgus monkey and rhesus monkey cloned into pRK mammalian expression vectors transiently transfected into HEK293T cells. The KLB extracellular domain polypeptide sequences that were expressed are as follows: […]

Another assay addresses T2, rat KLB (+N-ter FLAG) (rat, UniProt Q99N32 53-989 (mouse entry)).
T2 construct: expressed from KLB cDNA on HEK293T cells and read by FACS
T2 chain: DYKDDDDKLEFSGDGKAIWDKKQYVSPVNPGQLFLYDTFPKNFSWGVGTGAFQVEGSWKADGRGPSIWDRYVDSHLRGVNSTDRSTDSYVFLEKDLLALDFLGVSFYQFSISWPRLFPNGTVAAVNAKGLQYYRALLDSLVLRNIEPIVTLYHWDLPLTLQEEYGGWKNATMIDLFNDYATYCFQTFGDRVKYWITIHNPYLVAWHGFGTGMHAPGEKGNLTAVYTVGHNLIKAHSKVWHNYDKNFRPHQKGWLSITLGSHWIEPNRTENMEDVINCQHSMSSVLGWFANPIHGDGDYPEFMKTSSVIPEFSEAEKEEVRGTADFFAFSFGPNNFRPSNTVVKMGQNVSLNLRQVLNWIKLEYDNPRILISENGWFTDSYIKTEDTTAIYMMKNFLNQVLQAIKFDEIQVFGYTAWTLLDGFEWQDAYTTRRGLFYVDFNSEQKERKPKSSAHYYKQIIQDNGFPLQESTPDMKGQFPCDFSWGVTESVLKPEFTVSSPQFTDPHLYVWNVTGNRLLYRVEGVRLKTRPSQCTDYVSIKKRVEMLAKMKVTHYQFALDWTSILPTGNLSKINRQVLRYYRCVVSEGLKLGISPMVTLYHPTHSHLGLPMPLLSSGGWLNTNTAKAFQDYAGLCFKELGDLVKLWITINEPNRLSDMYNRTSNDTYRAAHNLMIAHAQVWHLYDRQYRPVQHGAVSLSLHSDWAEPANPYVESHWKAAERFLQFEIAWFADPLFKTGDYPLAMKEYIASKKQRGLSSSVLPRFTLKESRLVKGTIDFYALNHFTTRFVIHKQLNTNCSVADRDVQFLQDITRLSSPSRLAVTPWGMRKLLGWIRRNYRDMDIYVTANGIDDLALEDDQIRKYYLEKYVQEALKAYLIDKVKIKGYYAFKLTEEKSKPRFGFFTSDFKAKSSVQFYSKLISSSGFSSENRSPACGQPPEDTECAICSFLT
Nature of the assay: FACS on transfected HEK293T cells. On the procedure:
as §1

In assay [2] the target is T3, human KLB expressed on cells (human, UniProt Q86Z14 53-1044).
T3 construct: on transfected 293 / HEK293 cells; also called hKLB; beta-Klotho
The assay can be described thus: FACS on 293 cells expressing hKLB, antibody at 0.8 µg/ml, median shift.

B1: 14C10 (antibody, V domains shown)
VH: QVTLKESGPGILQPSQTLSLTCSFSGFSLSTSAMGIGWIRQPSGKGLEWLAHIWWDDDKRYNPALKSRLTISKDTSRNQVFLKIASVDTADTATYFCARIDGIYDGSFYAMDYWGQGTSVTVSS
VL: DIVLTQSPASLAVSLGQRATISCRASESVDSYGNSFMHWYQQKPGQPPKLLIYRASNLESGIPARFSGSGSRTDFTLTINPVEADDVANYYCQQSNEDYTFGGGTKLEIK
notes: murine hybridoma-derived anti-KLB antibody; also called KLBmAb3
Consider B1, for which the values for the binding result (in assay [1]; with rat KLB (+N-ter FLAG); in assay [2]) were “binds”, “no binding” and “binds”, respectively.

B2: 11D4 (antibody, V domains shown)
VH: QVQVKESGPGLVAPSQSLSITCTVSGFSLTNYGVSWIRQPPGKGLEWLGVIWGDGSINYHSALISRLTITKDNSKSQVFLKLNSLEADDTATYYCAKTHDWFDYWGQGTLVTVSA
VL: DIQMTQTPSSLSASLGDRVTINCRASQDISNYFNWYQQKPNGTIKLLIYYTSRLQSGVPSRFSGSGSGTDYSLTISNLEQEDKATYFCHQVRTLPWTFGGGTKLEIK
notes: murine hybridoma-derived anti-KLB antibody; also called KLBmAb5
Consider B2, for which the binding result in assay [1] is given as “binds”; in the assay with rat KLB (+N-ter FLAG), “no binding”; in assay [2], “binds”.

B3: 12A11 (antibody, V domains shown)
VH: EVKFLESGGGLVQPGGSLRLSCAVSGIDFSRYWMSWVRQAPGKGLEWIGEISPDSSTINYTPSLKDKFVISRDNAKNTLYLQMSKVRSADTALYYCARPSPALDYWGQGTLVTVSA
VL: DIVMTQSPATLSVTPGDRVSLSCRASQSISDYVYWYQQKSHESPRLLIIYASQSISGIPSRFSGSGSGSDFTLSINSVEPEDVGVYYCQNGHNFPYTFGGGTKLEIK
notes: murine hybridoma-derived anti-KLB antibody; also called KLBmAb2
As for B3, the binding result is given as “binds” in assay [1], “no binding” in the assay with rat KLB (+N-ter FLAG) and “binds” in assay [2].

B4: 6C1 (antibody, V domains shown)
VH: QVQLQQSGDELMKPGASVKISCKVTGNTFSSYWIEWVKQRPGHGLEWIGEILPGSDSTKYVEKFKVKATFTADTSSNTAYMQLSSLTSEDSAVYYCARGGYHYPGWLVYWGQGTLVTVSA
VL: DIVMTQSQKFMSTSVGDRVSVTCKASQNVDSYVAWYQQKAGQSPKPLIYSASYRFSGVPDRFTGSGSGTEFTLTISNVQSEDLAEYFCQQYNISPYTFGGGTKLEIK
notes: murine hybridoma-derived anti-KLB antibody; also called KLBmAb4
For the molecule B4, the binding result is on record as “binds” in assay [1], “no binding” with rat KLB (+N-ter FLAG) and “binds” in assay [2].
